Measured values: US11840574B2, “Anti-DR5 antibody and use thereof” (DONG-A ST CO., LTD., priority 2017, dated 2023)

Target: Human DR5 (Homo sapiens, UniProt O14763)
Experiment: Binding affinity of antibody to human DR5 (BIAcore, CM5 chip)
Conditions: for Ka: association rate, Human DR5, 1:1 Langmuir binding model; for Kd: equilibrium dissociation constant, Human DR5
Method: In order to measure affinity, human DR5 was coupled to carboxylated dextran biosensor chips (CM5, GE) according to the manufacturer's instruction. Association and dissociation rates were assessed by injecting IgG proteins that were 2-fold serially diluted to 5 nM, 2.5 nM, 1.25 nM, 0.625 nM, 0.313 nM, and 0.156 nM.
Association and dissociation rates were depicted in association and dissociation sensorgrams and calculated using a simple 1:1 Langmuir binding model (BIAcore X100 Evaluation Software, ver. 2.0). The equilibrium dissociation constants (KD), which is the ratio of dissociation constant (Kd) to association constant (Ka), were confirmed to be in the sub-nanomolar range. Measurements of the binding of antibody D0 and DA1 to DA35 of the present disclosure to DR5 are given in Table 11 below (antibody names are given as the names of the clones from which the antibodies were derived). A representative sensorgram for D0 is depicted in FIG. 1.

Ka	Kd	Molecule
5.6e+06 M⁻¹ s⁻¹	–	DA9: humanized or deimmunized variant of parental clone D0; CDRs SEQ ID NO 1, 2, 7 / 4, 10, 13 (antibody, V domains shown) VH: EVQLVESGGGLVQPGGSLRLSCAASGFTFSSFNMLWVRQAPGKGLEWVAGIGKSDRYTGYGSAVKGRFTISRDDSKSTLYLQMNSLRAEDTAVYYCVRDAGSGCGSGGWTGACIDTWGQGTLVTVSS VL: DIQMTQSPSSLSASVGDRVTITCSGGDSYAGSYYYGWYQQKPGKAPKTLIYNNNNRPSGVPSRFSGSRSGTDFTLTISSLQPEDFATYYCGSRDSSYVGIFGQGTKVEIK
2.3e+06 M⁻¹ s⁻¹	7 pM	DA10: humanized or deimmunized variant of parental clone D0; CDRs SEQ ID NO 1, 2, 7 / 4, 10, 13 (antibody, V domains shown) VH: EVQLVESGGGLVQPGGSLRLSCAASGFTFSSFNMLWVRQAPGKGLEWVAGIGKSDRYTGYGSAVKGRFTISRDTSKNTAYLQMNSLRAEDTAVYYCSRDAGSGCGSGGWTGACIDTWGQGTLVTVSS VL: DIQMTQSPSSLSASVGDRVTITCSGGDSYAGSYYYGWYQQKPGKAPKTLIYNNNNRPSGVPSRFSGSRSGTDFTLTISSLQPEDFATYYCGSRDSSYVGIFGQGTKVEIK

Second part, the molecule before the results:

Molecule	Ka	Kd
DA5: humanized or deimmunized variant of parental clone D0; CDRs SEQ ID NO 1, 2, 7 / 4, 10, 13 (antibody, V domains shown) VH: EVQLVESGGGLVQPGGSLRLSCAASGFTFSSFNMLWVRQAPGKGLEWVAGIGKSDRYTGYGSAVKGRFTISRDDSKSTAYLQMNSLRAEDTAVYYCVRDAGSGCGSGGWTGACIDTWGQGTLVTVSS VL: DIQMTQSPSSLSASVGDRVTITCSGGDSYAGSYYYGWYQQKPGKAPKTLIYNNNNRPSGVPSRFSGSTSGTDFTLTISSLQPEDFATYYCGSRDSSYVGIFGQGTKVEIK	1.2e+06 M⁻¹ s⁻¹	–
DA8: humanized or deimmunized variant of parental clone D0; CDRs SEQ ID NO 1, 2, 7 / 4, 10, 13 (antibody, V domains shown) VH: EVQLVESGGGLVQPGGSLRLSCAASGFTFSSFNMLWVRQAPGKGLEWVAGIGKSDRYTGYGSAVKGRFTISRDDSKSTVYLQMNSLRAEDTAVYYCVRDAGSGCGSGGWTGACIDTWGQGTLVTVSS VL: DIQMTQSPSSLSASVGDRVTITCSGGDSYAGSYYYGWYQQKPGKAPKTLIYNNNNRPSGVPSRFSGSGSGTDFTLTISSLQPEDFATYYCGSRDSSYVGIFGQGTKVEIK	1.6e+06 M⁻¹ s⁻¹	–
DA6: humanized or deimmunized variant of parental clone D0; CDRs SEQ ID NO 1, 2, 7 / 4, 10, 13 (antibody, V domains shown) VH: EVQLVESGGGLVQPGGSLRLSCAASGFTFSSFNMLWVRQAPGKGLEWVAGIGKSDRYTGYGSAVKGRFTISRDDSKSTVYLQMNSLRAEDTAVYYCARDAGSGCGSGGWTGACIDTWGQGTLVTVSS VL: DIQMTQSPSSLSASVGDRVTITCSGGDSYAGSYYYGWYQQKPGKAPKTLIYNNNNRPSGVPSRFSGSTSGTDFTLTISSLQPEDFATYYCGSRDSSYVGIFGQGTKVEIK	7.8e+06 M⁻¹ s⁻¹	–
DA7: humanized or deimmunized variant of parental clone D0; CDRs SEQ ID NO 1, 2, 7 / 4, 10, 13 (antibody, V domains shown) VH: EVQLVESGGGLVQPGGSLRLSCAASGFTFSSFNMLWVRQAPGKGLEWVAGIGKSDRYTGYGSAVKGRFTISRDDSKSTVYLQMNSLRAEDTAVYYCSRDAGSGCGSGGWTGACIDTWGQGTLVTVSS VL: DIQMTQSPSSLSASVGDRVTITCSGGDSYAGSYYYGWYQQKPGKAPKTLIYNNNNRPSGVPSRFSGSTSGTDFTLTISSLQPEDFATYYCGSRDSSYVGIFGQGTKVEIK	1.4e+06 M⁻¹ s⁻¹	1.9 pM
